Experimental data as given in IntAct's records for PubMed 18761085.

B1: Ras GTPase-activating protein 1 (Homo sapiens), P20936 (parent)
chain: MMAAEAGSEEGGPVTAGAGGGGAAAGSSAYPAVCRVKIPAALPVAAAPYPGLVETGVAGTLGGGAALGSEFLGAGSVAGALGGAGLTGGGTAAGVAGAAAGVAGAAVAGPSGDMALTKLPTSLLAETLGPGGGFPPLPPPPYLPPLGAGLGTVDEGDSLDGPEYEEEEVAIPLTAPPTNQWYHGKLDRTIAEERLRQAGKSGSYLIRESDRRPGSFVLSFLSQMNVVNHFRIIAMCGDYYIGGRRFSSLSDLIGYYSHVSCLLKGEKLLYPVAPPEPVEDRRRVRAILPYTKVPDTDEISFLKGDMFIVHNELEDGWMWVTNLRTDEQGLIVEDLVEEVGREEDPHEGKIWFHGKISKQEAYNLLMTVGQVCSFLVRPSDNTPGDYSLYFRTNENIQRFKICPTPNNQFMMGGRYYNSIGDIIDHYRKEQIVEGYYLKEPVPMQDQEQVLNDTVDGKEIYNTIRRKTKDAFYKNIVKKGYLLKKGKGKRWKNLYFILEGSDAQLIYFESEKRATKPKGLIDLSVCSVYVVHDSLFGRPNCFQIVVQHFSEEHYIFYFAGETPEQAEDWMKGLQAFCNLRKSSPGTSNKRLRQVSSLVLHIEEAHKLPVKHFTNPYCNIYLNSVQVAKTHAREGQNPVWSEEFVFDDLPPDINRFEITLSNKTKKSKDPDILFMRCQLSRLQKGHATDEWFLLSSHIPLKGIEPGSLRVRARYSMEKIMPEEEYSEFKELILQKELHVVYALSHVCGQDRTLLASILLRIFLHEKLESLLLCTLNDREISMEDEATTLFRATTLASTLMEQYMKATATQFVHHALKDSILKIMESKQSCELSPSKLEKNEDVNTNLTHLLNILSELVEKIFMASEILPPTLRYIYGCLQKSVQHKWPTNTTMRTRVVSGFVFLRLICPAILNPRMFNIISDSPSPIAARTLILVAKSVQNLANLVEFGAKEPYMEGVNPFIKSNKHRMIMFLDELGNVPELPDTTEHSRTDLSRDLAALHEICVAHSDELRTLSNERGAQQHVLKKLLAITELLQQKQNQYTKTNDVR
partner: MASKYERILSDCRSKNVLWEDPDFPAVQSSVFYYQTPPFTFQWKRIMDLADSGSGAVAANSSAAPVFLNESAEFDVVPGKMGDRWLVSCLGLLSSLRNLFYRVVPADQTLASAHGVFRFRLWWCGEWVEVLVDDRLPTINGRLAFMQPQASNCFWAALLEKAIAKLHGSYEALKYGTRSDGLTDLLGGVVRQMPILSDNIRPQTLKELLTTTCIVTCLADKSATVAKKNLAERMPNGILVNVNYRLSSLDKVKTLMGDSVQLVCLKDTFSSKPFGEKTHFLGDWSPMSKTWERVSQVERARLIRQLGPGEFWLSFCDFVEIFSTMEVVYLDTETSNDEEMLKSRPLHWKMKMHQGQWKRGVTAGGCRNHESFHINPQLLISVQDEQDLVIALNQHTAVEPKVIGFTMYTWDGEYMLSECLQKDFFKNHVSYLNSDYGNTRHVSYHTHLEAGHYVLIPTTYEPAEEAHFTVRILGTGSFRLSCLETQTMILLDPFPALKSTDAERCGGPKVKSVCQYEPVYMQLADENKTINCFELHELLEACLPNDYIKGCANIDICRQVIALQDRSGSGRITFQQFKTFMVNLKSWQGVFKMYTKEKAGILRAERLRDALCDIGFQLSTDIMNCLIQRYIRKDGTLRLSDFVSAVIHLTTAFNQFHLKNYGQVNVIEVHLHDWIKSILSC

Variants of: B1
Conditions: with canc_drome CalpC

Variant	effect of a mutation on the interaction
W317K	disrupting interaction
